Data published in patent publication US20100298220A1.

Target: FGF receptor (on NIH 3T3 fibroblasts)
Experiment: cell-based or functional assay

Row | EC50 of mitogenic activity, NIH 3T3 fibroblast proliferation, in the absence of heparin [ng/mL] | EC50 of mitogenic activity, NIH 3T3 fibroblast proliferation, in the presence of 10 U/ml heparin [ng/mL] | fold increase in mitogenic activity relative to wild-type FGF-1, in the absence of added heparin [fold] | Substance
1 | 5.43 | 0.36 | 10 | Ala66→Cys mutant of human FGF-1 (140 amino acid form, His-tagged), oxidized form (from UniProt P05230 16-155) (ligand)
2 | 58.4 | 0.48 |  | wild-type human FGF-1, 140 amino acid form, with an additional amino-terminal six His tag (from UniProt P05230 16-155) (ligand)
